Measured values reported in patent US11191771B2, “Combinations of PBD-based antibody drug conjugates with FLT3 inhibitors” (Seagen Inc., priority 2016, dated 2021).

System: FLT3/ITD MV4-11 xenografts
Assay: Survival of FLT3/ITD MV4-11 xenografts
Type: in vivo
Conditions: MV4-11 s.c. in SCID mice, quizartinib 0.4 mg/kg daily for 21 days by mouth
Procedure: Five million MV4-11 cells were implanted subcutaneously in SCID mice. Tumor growth was monitored throughout the course of the study with bilateral vernier caliper measurements, and mean tumor volumes were calculated using the equation (0.5×[length×width^2]).
Mice with advanced tumor burden were sacrificed upon reaching tumor volumes of greater than 400 mm^3 or showing symptoms of hind limb paralysis, cranial swelling, and/or moribundity.

B1: SGN-CD33A: h2H12EC antibody conjugated to SGD-1910, the pyrrolobenzodiazepine dimer drug-linker (conjugate, chains of the INN, looked up)
VH: QVQLVQSGAEVKKPGASVKVSCKASGYTFTNYDINWVRQAPGQGLEWIGWIYPGDGSTKYNEKFKAKATLTADTSTSTAYMELRSLRSDDTAVYYCASGYEDAMDYWGQGTTVTVSS
VL: DIQMTQSPSSLSASVGDRVTINCKASQDINSYLSWFQQKPGKAPKTLIYRANRLVDGVPSRFSGSGSGQDYTLTISSLQPEDFATYYCLQYDEFPLTFGGGTKVEIK
modifications: PBD dimer payload (talirine)
- effect on progression / survival (ADC 10 mcg/kg once i.p., FIG. 5): induced delay of progression
- median survival time (SGN-CD33A or SGN-CD123A 10 mcg/kg once i.p., untreated 23 days): 31 days
